Target: T1, Alexa-488 tagged Hsp60α (Sulfolobus acidocaldarius, UniProt Q9V2T5 1-558, Alexa-488 label (site not stated))
T1 sequence (looked up): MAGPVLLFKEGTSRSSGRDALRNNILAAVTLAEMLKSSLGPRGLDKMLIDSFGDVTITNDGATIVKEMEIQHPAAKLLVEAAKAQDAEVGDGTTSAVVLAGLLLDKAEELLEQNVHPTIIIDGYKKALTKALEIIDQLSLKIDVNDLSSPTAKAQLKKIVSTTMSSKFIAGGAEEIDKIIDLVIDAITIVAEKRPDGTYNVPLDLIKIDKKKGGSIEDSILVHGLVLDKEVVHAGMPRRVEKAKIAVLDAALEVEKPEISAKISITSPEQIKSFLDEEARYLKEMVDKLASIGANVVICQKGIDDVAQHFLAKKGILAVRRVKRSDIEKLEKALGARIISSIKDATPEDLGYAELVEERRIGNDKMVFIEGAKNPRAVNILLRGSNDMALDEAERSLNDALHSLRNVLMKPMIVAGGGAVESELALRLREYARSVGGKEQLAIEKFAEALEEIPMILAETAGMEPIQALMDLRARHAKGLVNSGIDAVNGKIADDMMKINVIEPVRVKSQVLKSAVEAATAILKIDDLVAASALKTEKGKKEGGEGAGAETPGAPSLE
Experiment: FRET or BRET

- Kd: 167 ± 1.7 nM
B1: Alexa-532 tagged Hsp60β (natural protein, Sulfolobus acidocaldarius, UniProt Q9V2T4 1-553, looked up)
chain: MSATATVATTPEGIPVIILKEGSSRTYGKEALRINIAAVKAVEEALKTTYGPRGMDKMLVDSLGDITITNDGATILDKMDLQHPAAKLLVQIAKGQDEETADGTKTAVIFSGELVKKAEELLYKEIHPTIIVSGYKKAEEMAIKTIEEISTKVSVNDTEILRKVALTSLSSKAVAGAREHLADIVVKAITQVAELRGDKWYVDLDNVQIVKKHGGSINDTQIVYGIIVDKEVVHPGMPKRVENAKIALLDASLEVEKPELDAEIRINDPTQMKKFLDEEENILKEKVDKIAQTGANVVICQKGIDEVAQHYLAKKGILAVRRAKKSDLEKLARATGGRVVSNIDELTSQDLGYATLVEERKIGEDKMVFIEGAKNPKAVSILIRGGLERVVDETERALRDALGTVADVVRDGRAIAGGGAVETEIAKRLRKYAPQVGGKEQLAIEAYANALESLVMILIENGGFDPIELLVKLRSAHENETNKWHGINVYTGQIQDMWSLGVIEPAVVKMNAIKAATEASTLILRIDDLISAGKKSEGKTGEKKESEKGKEED
modifications: Alexa-532 label (site not stated)
